{"source": "patent CN105330739A", "target": "huVEGF 165 (human)", "sequence (chain, as listed by the source, form in doubt)": "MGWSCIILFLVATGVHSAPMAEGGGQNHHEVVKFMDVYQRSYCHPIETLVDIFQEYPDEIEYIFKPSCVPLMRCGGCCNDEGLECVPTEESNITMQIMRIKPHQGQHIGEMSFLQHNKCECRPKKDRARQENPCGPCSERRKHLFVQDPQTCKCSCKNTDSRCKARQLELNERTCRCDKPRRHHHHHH", "test": "indirect ELISA, huVEGF coated at 0.5 ug/ml, four-parameter fit", "data": [{"substance": "商品化贝伐单抗(avastin) (antibody)", "values": [{"measurement": "EC50", "value": 0.19, "unit": "nM"}]}]}
